# From the RNAGym collection of RNA variant scans (doi:10.1093/nar/gkz1192)
# B1: CPEB3 Ribozyme (parent)
# chain: UAACAGGGGGCCACAGCAGAAGCGUUCACGUCGCAGCCCCUGUCAGAUUCUGGUGAAUCUGCGAAUUCUGCUGUAUAUCUC
# Variants of: B1
# Test: self-cleavage, relative activity (ratio to wild type); higher = more cleavage; in vitro, sequencing
# In short: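 Barcoded CPEB3 ribozyme mutants, produced by rounds of error-prone PCR, self-cleaved while being transcribed with T7 RNA polymerase for 5 hours at 37°C and during a subsequent 15 min DNase I step before EDTA was added. Sequencing of template-switched cDNA on Illumina gave cleaved and total reads, and DNA sequencing assigned barcodes to variants. Each variant's relative activity is its cleaved/total read fraction divided by the unmutated ribozyme's fraction, averaged across three batches. A variant needed a minimum of 5 reads.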
row,Variant,self-cleavage
1,UAACAGGGGGUCACAGCAGAAGCGUUCACGUCGCAGCCCUUGUCAGAUUCUGGUGAAUCUGCGAAUUCUGCUGUAUAUCUC [C11U C40U],0.27
2,UAACAGGGGGCAACAGCAGAAGCGUUCUCGUCGCAGCCCCUGUCAGAUUCUGGUGAAUCUGCGAAUUCUGCUGUAUAUCUC [C12A A28U],0.92
3,UAACAGGGGGCAACAGCAGAAGCGUUCGCGUCGCAGCCCCUGUCAGAUUCUGGUGAAUCUGCGAAUUCUGCUGUAUAUCUC [C12A A28G],0.59
4,UAACAGGGGGCAACAGCAGAAGCGUUCCCGUCGCAGCCCCUGUCAGAUUCUGGUGAAUCUGCGAAUUCUGCUGUAUAUCUC [C12A A28C],0.57
5,UAACAGGGGGUCACAGCAGAAGCGUUCACGUCGCAGCCCCUGUCAGAUUCUGGUGAAUCUGCAAAUUCUGCUGUAUAUCUC [C11U G63A],0.24
6,UAACAGGGGGUCACAGCAGAAGCGUUCACGUCGCAGCCCCUGUCAGAUUCUAGUGAAUCUGCGAAUUCUGCUGUAUAUCUC [C11U G52A],0.62
7,UAACAGGGGGCAACAGCAGUAGCGUUCACGUCGCAGCCCCUGUCAGAUUCUGGUGAAUCUGCGAAUUCUGCUGUAUAUCUC [C12A A20U],0.32
8,UAACAGGGGGCAACAGCAGGAGCGUUCACGUCGCAGCCCCUGUCAGAUUCUGGUGAAUCUGCGAAUUCUGCUGUAUAUCUC [C12A A20G],1.17
9,UAACAGGGGGUCACAGCAGAAGCGUUCACGUCGCAGCCCCUGUCAGAUUCUGGUGAAUCUGCGAAUUCUGCUAUAUAUCUC [C11U G73A],1.25
10,UAACAGGGGGUCACAGCAGAAGCGUUCACGUCGCAGCCCCUAUCAGAUUCUGGUGAAUCUGCGAAUUCUGCUGUAUAUCUC [C11U G42A],0
11,UAACAGGGGGUCACAGCAGAAGCGUUCACGUCGCAGCCCCUGUCAGAUUCUGGUGAAUCUGCGAAUUCUGCUGAAUAUCUC [C11U U74A],0.96
12,UAACAGGGGGUCACAGCAGAAGCGUUCACGUCGCAGCCCCUGUCAGAUUCUGGUGAAUCUGCGAAUUCUGCUGCAUAUCUC [C11U U74C],0.83
13,UAACAGGGGGCAACAGCUGAAGCGUUCACGUCGCAGCCCCUGUCAGAUUCUGGUGAAUCUGCGAAUUCUGCUGUAUAUCUC [C12A A18U],0.48
14,UAACAGGGGGUCACAGCAGAAGCGUUCACGUCGCAGCCCCUGUCAGAUUCUGGUGAAUCUGCGAAUUCUGCUGUAUACCUC [C11U U78C],0.33
15,UAACAGGGGGUCACAGCAGAAGCGUUCACGUCGCAGCCCCUGUCAGAUUCUGGUGAAUCUGCGAAUUCUGCUGUAUAACUC [C11U U78A],0.53
16,UAACAGGGGGCAACAGCAGAAGCGUUCACGUCGCAGCCCCUGUCGGAUUCUGGUGAAUCUGCGAAUUCUGCUGUAUAUCUC [C12A A45G],1.04
17,UAACAGGGGGUCACAGCAGAAGCGUUCACGUCGCAGCCCCUGUCAGAUUCAGGUGAAUCUGCGAAUUCUGCUGUAUAUCUC [C11U U51A],0.42

row,Variant,self-cleavage
1,UAACAGGGGGUCACAGCAGAAGCGUUCACGUCGCAGCCCCUGUCAGAUUCCGGUGAAUCUGCGAAUUCUGCUGUAUAUCUC [C11U U51C],0.44
2,UAACAGGGGGUCACAGCAGAAGCGUUCACGUCGCAGCCCCUGUCAGAUUCGGGUGAAUCUGCGAAUUCUGCUGUAUAUCUC [C11U U51G],0.35
3,UAACAGGGGGUCACAGCAGAAGCGUUCACGUCGCAGCCCCUGUCAGAUUCUGCUGAAUCUGCGAAUUCUGCUGUAUAUCUC [C11U G53C],0.4
4,UAACAGGGGGUCACAGCAGAAGCGUUCACGUCGCAGCCCCUGUCAGAUUCUGUUGAAUCUGCGAAUUCUGCUGUAUAUCUC [C11U G53U],0.43
5,UAACAGGGGGCAACAGCAGAAGCGUUCACGUCGCUGCCCCUGUCAGAUUCUGGUGAAUCUGCGAAUUCUGCUGUAUAUCUC [C12A A35U],1.27
6,UAACAGGGGGCAACAGCAGAAGCGUUCACGUCGCGGCCCCUGUCAGAUUCUGGUGAAUCUGCGAAUUCUGCUGUAUAUCUC [C12A A35G],0.9
7,UAACAGGGGGUCACAGCAGAAGCGUUCACGUCCCAGCCCCUGUCAGAUUCUGGUGAAUCUGCGAAUUCUGCUGUAUAUCUC [C11U G33C],0.14
8,UAACAGGGGGUCACAGCAGAAGCGUUCACGUCACAGCCCCUGUCAGAUUCUGGUGAAUCUGCGAAUUCUGCUGUAUAUCUC [C11U G33A],0.42
9,UAACAGGGGGUCACAGCAGAAGCGUUCACGUCUCAGCCCCUGUCAGAUUCUGGUGAAUCUGCGAAUUCUGCUGUAUAUCUC [C11U G33U],0.19
10,UAACAGGGGGUCACAGCAGAAGCGUUCACGUCGCAGCCCCUGUCAGAUUCUGGUGAAUCUGCGAAUUAUGCUGUAUAUCUC [C11U C68A],0.11
11,UAACAGGGGGUCACAGCAGAAGCGUCCACGUCGCAGCCCCUGUCAGAUUCUGGUGAAUCUGCGAAUUCUGCUGUAUAUCUC [C11U U26C],0.31
12,UAACAGGGGGUCACAGCAGAAGCGUACACGUCGCAGCCCCUGUCAGAUUCUGGUGAAUCUGCGAAUUCUGCUGUAUAUCUC [C11U U26A],0.36
13,UAACAGGGGGUCACAGCAGAAGCGUUCACGUCGCAGCCCCUGUCAGAUUCUGGAGAAUCUGCGAAUUCUGCUGUAUAUCUC [C11U U54A],0.45
14,UAACAGGGGGUCACAGCAGAAGCGUUCACGUCGCAGCCCCUGUCAGAUUCUGGCGAAUCUGCGAAUUCUGCUGUAUAUCUC [C11U U54C],0.43
15,UAACAGGGGGUCACAGCAGAAGCAUUCACGUCGCAGCCCCUGUCAGAUUCUGGUGAAUCUGCGAAUUCUGCUGUAUAUCUC [C11U G24A],0.22
16,UAACAGGGGGUCACAGCAGAAGCGUUCACGCCGCAGCCCCUGUCAGAUUCUGGUGAAUCUGCGAAUUCUGCUGUAUAUCUC [C11U U31C],0.29
17,UAACAGGGGGUCACAGCAGAAGCGUUCACGGCGCAGCCCCUGUCAGAUUCUGGUGAAUCUGCGAAUUCUGCUGUAUAUCUC [C11U U31G],0.23
